PMC3077455 (Nature, 2011)

T1: Scm3 residues 93-169, as it stands in the single-chain molecule scSCH (yeast, UniProt Q12334 93-169)
T1 sequence: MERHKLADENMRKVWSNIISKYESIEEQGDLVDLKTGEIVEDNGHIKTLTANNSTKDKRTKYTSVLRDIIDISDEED

B1: Histone H4 residues 42-103, as it stands in the single-chain molecule scSCH (domain or fragment)
chain: not shown
B2: Scm3_(83–169) (domain or fragment)
chain: IIPKLTDDEVMERHKLADENMRKVWSNIISKYESIEEQGDLVDLKTGEIVEDNGHIKTLTANNSTKDKRTKYTSVLRDIIDISDEED
B3: single chain Cse4-H4 (His6-KK-Cse4_(151–207)-LVPRGS-H4_(45–103)) (complex)
chain: not shown

What was measured:
[1] = biological target: T1, Scm3 residues 93-169, as it stands in …; assay: NMR structure
[2] = biological target: single chain Cse4-H4 with Cse4 Ala189Ser/Ser190Val (budding yeast | , UniProt P36012;P02309, Ala189Ser | Ser190Val); assay: ITC
[3] = biological target: single chain Cse4-H4 with Cse4 Met181Ser/Met184Gly (budding yeast | , UniProt P36012;P02309, Met181Ser | Met184Gly); assay: ITC
[4] = biological target: B2; assay: ITC

B1: binds [1].

With B2 the “fold reduction of the binding affinity against the wild type” value [2] was 9 fold and the “fold reduction of the binding affinity against the wild type” value [3] was 5.5 fold.

B3: binds [4].
